In US20210246204A1 (Alector, published 2021):
Substitutions are numbered along the chain they refer to. Names may count otherwise.

B1: S7AB-H8.44 huIgG1 (antibody, V domains shown)
VH: QVQLVQSGAEVKKPGASVKVSCKASGYAFTAAWMNWVRQAPGQGLEWIGRIFPGLGHTNYAQKFQGRATLTEDTSTSTAYMELSSLRSEDTAVYYCARDYSDYYFDYWGQGTLVTVSS
VL: DIQMTQSPSSLSASVGDRVTITCRGSQDINTYLNWYQQKPGKAPKLLIYYTSRLHSGVPSRFSGSGSGTDYTLTISSLQPEDFATYYCQQGNILPWTFGQGTKLEIK
B2: S7AB-H8.44 huIgG2 (antibody, V domains shown)
VH: B1 VH
VL: B1 VL
B3: S7AB-H8.44 huIgG1 SELF (antibody, V domains shown)
VH: B1 VH
VL: B1 VL
B4: S7AB-H8.44 huIgG1 LALAPS (antibody, V domains shown)
VH: B1 VH
VL: B1 VL
B5: S7AB-H8.44 huIgG1 N297A (antibody, V domains shown)
VH: B1 VH
VL: B1 VL
B6: S7AB-H8 (antibody, V domains shown)
VH: B1 VH with V20I, A31N, A32C, L55N
VL: B1 VL with G25A, I93T
notes: also called parental humanized antibody
B7: S7AB-H9 (antibody, V domains shown)
VH: B1 VH with V20I, A31N, A32C, L55N
VL: B1 VL with I2V, G25A, I93T
B8: S7AB-H11 (antibody, V domains shown)
VH: B1 VH with V20I, A31N, A32C, L55N, V114L
VL: B1 VL with G25A, I93T
B9: S7AB-H12 (antibody, V domains shown)
VH: B1 VH with V20I, A31N, A32C, L55N, V114L
VL: B1 VL with I2V, G25A, I93T
B10: S7AB-H2 (antibody, V domains shown)
VH: B1 VH with A31N, A32C, I48M, L55N, A68V, L70M, E72R, A79V
VL: B1 VL with G25A, I93T
B11: S7AB-H3 (antibody, V domains shown)
VH: B1 VH with A31N, A32C, I48M, L55N, A68V, L70M, E72R, A79V
VL: B1 VL with I2V, G25A, I93T
B12: S7AB-H4 (antibody, V domains shown)
VH: B1 VH with A31N, A32C, L55N, A68V, L70M, A79V
VL: B1 VL with G25A, Y71F, I93T
B13: S7AB-H5 (antibody, V domains shown)
VH: B1 VH with A31N, A32C, L55N, A68V, L70M, A79V
VL: B1 VL with G25A, I93T
B14: S7AB-H6 (antibody, V domains shown)
VH: B1 VH with A31N, A32C, L55N, A68V, L70M, A79V
VL: B1 VL with I2V, G25A, I93T
B15: S7AB-H7 (antibody, V domains shown)
VH: B1 VH with V20I, A31N, A32C, L55N
VL: B1 VL with G25A, Y71F, I93T
B16: S7AB-H10 (antibody, V domains shown)
VH: B1 VH with V20I, A31N, A32C, L55N, V114L
VL: B1 VL with G25A, Y71F, I93T

Each binder was assayed against T1, human Siglec-7 on primary human monocyte-derived dendritic cells (human, UniProt Q9Y286 19-467) (assay: cell-based or functional assay).
T1 sequence (Q9Y286 19-467): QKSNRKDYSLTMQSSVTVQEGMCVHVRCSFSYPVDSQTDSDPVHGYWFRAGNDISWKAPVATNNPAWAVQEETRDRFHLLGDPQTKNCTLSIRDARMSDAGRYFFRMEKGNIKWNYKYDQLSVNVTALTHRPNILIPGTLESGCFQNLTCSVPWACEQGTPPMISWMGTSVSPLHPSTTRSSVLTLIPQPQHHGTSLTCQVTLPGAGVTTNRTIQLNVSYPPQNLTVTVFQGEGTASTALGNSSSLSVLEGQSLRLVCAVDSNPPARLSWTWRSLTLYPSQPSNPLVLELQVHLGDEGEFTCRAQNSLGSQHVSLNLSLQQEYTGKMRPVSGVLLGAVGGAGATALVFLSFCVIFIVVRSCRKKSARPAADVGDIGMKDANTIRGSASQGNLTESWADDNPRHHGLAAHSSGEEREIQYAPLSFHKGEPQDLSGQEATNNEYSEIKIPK
For B1, the “Maximal downregulation (% Siglec-7 remaining)” value was 1% and the “Receptor downregulation, (pM, EC50)” value was 33.6 pM.
With B2 the “Maximal downregulation (% Siglec-7 remaining)” value was 2.8% and the “Receptor downregulation, (pM, EC50)” value was 43.8 pM.
B3 was tested, and the “Maximal downregulation (% Siglec-7 remaining)” value was less than 0.1% and the “Receptor downregulation, (pM, EC50)” value was 9.1 pM.
For B4, the “Maximal downregulation (% Siglec-7 remaining)” value was 2.8% and the “Receptor downregulation, (pM, EC50)” value was 67.3 pM.
B5 was tested, and the “Maximal downregulation (% Siglec-7 remaining)” value was 2.9% and the “Receptor downregulation, (pM, EC50)” value was 68.6 pM.

Molecular target: T1, human Siglec-7 on primary human …
Experiment: cell-based or functional assay
Remark: another data set of the same source
In the case of B6, the “Fold increase in potency compared to Chimeric Ab” value is reported as 3 fold, the “Maximal downregulation (% Siglec-7 remaining)” value is reported as 18.3% and the “Receptor downregulation, (EC50) (pM)” value is reported as 340 pM.

What follows are binders tested against T2, histidine-tagged human Siglec-7 (NovoProtein) (human, UniProt Q9Y286 19-353) (assay: BLI (ForteBio), antibody captured).
T2 construct: Bought protein; also called recombinant human Siglec-7; recombinant Siglec-7; not shown: histidine tag
T2 sequence (Q9Y286 19-353 limits assumed): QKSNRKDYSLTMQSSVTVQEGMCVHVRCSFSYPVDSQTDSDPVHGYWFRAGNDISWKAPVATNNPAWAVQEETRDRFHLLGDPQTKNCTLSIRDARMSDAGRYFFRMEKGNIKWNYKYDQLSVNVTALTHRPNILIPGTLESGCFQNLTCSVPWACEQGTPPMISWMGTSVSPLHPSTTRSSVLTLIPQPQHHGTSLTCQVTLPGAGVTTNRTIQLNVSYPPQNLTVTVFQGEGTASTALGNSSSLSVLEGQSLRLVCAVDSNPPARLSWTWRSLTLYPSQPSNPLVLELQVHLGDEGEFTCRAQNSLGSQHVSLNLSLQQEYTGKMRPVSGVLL
Description: (§1) In this assay, the humanized antibodies were compared directly to S7AB. Briefly, the antibodies were captured on anti-human or anti-mouse IgG Fc Biosensors (Pall ForteBio). Varying concentrations (0-100 nM) of histidine-tagged human Siglec-7 (NovoProtein) were then bound to the captured anti-Siglec-7 surface (200 s association time, 900 s dissociation time). Multi-concentration kinetic analysis was performed using a 1:1 interaction model to extract association and dissociation rate constants (kₐ and kd, respectively) for each antibody. Apparent affinity constants (KD) were calculated from the ratio kd/kₐ.
Binder B6 has a koff of 0.000125 s⁻¹ and a kon of 145000 M⁻¹ s⁻¹.
B7 was tested, and the Kd was 0.74 nM, the koff was 0.000112 s⁻¹ and the kon was 150000 M⁻¹ s⁻¹.
In the case of B8, the Kd is reported as 1.07 nM, the koff is reported as 0.000172 s⁻¹ and the kon is reported as 160000 M⁻¹ s⁻¹.
In the case of B9, the Kd is reported as 1.01 nM, the koff is reported as 0.000152 s⁻¹ and the kon is reported as 150000 M⁻¹ s⁻¹.

What follows are binders tested against T1, human Siglec-7 on primary human … (assay: flow cytometry, primary human dendritic cells).
Description: The 12 humanized antibodies of S7AB were evaluated for binding to primary dendritic cells by flow cytometry. Monocytes were isolated from blood from healthy human donors using the RosetteSep™ monocyte isolation antibody cocktail (StemCell Technologies). The isolated monocytes were differentiated into dendritic cells with 100 ng/mL GM-CSF and 100 ng/mL IL-4 (Peprotech). Dendritic cells were incubated with dilutions of the anti-Siglec-7 antibodies for 30 minutes on ice in the dark, followed by a 30-minute incubation with a fluorescently-conjugated anti-human IgG secondary antibody. Cells were washed twice in FACS buffer (PBS+2% FBS, 2 mM EDTA), and flow cytometry was performed on a BD FACS Canto. Data were analyzed using FlowJo software (Ashland, Oreg.).
With B6 the EC50 was 1.5 nM.
B10 showed an EC50 of 1.8 nM.
Work on B11 yielded an EC50 of 1.6 nM.
B12 was tested, and the EC50 was 3.2 nM.
In the case of B13, the EC50 is reported as 1.1 nM.
For B14, the EC50 was 1.6 nM.
In the case of B15, the EC50 is reported as 3.3 nM.
In the case of B7, the EC50 is reported as 1.5 nM.
B16 showed an EC50 of 6.3 nM.
Work on B8 yielded an EC50 of 1.2 nM.
In the case of B9, the EC50 is reported as 5.6 nM.

The binders below were run against T2, histidine-tagged human Siglec-7 … (assay: BLI (ForteBio), antibody captured; Table 2 experiment; antibody captured on anti-IgG Fc Biosensors, 0-100 nM His-tagged Siglec-7).
Description: as §1
For B6, the Kd was 0.86 nM.

Each binder was assayed against T2, histidine-tagged human Siglec-7 … (assay: BLI, antibody captured).
Method in brief: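 Antibodies captured on anti-human or anti-mouse IgG Fc biosensors; His-tagged human Siglec-7 flowed at 0–100 nM (200 s association, 900 s dissociation). ka and kd from 1:1 multi-concentration fit; apparent KD = kd/ka.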
B6 showed a Kd of 1.05 nM, a koff of 0.000174 s⁻¹ and a kon of 166000 M⁻¹ s⁻¹.

Molecular target: T1, human Siglec-7 on primary human …
Experiment: cell-based or functional assay
Remark: another data set of the same source
With B6 the “Receptor downregulation, (EC50) (pM)” value was 395 pM.
In the case of B7, the “Receptor downregulation, (EC50) (pM)” value is reported as 432 pM.
For B8, the “Receptor downregulation, (EC50) (pM)” value was 411 pM.
With B9 the “Receptor downregulation, (EC50) (pM)” value was 447 pM.
